Data taken from IntAct's records for PubMed 12097473.

B1: Kinesin-like protein KIF1B (Homo sapiens), O60333-3 (parent)
chain: MSGASVKVAVRVRPFNSRETSKESKCIIQMQGNSTSIINPKNPKEAPKSFSFDYSYWSHTSPEDPCFASQNRVYNDIGKEMLLHAFEGYNVCIFAYGQTGAGKSYTMMGKQEESQAGIIPQLCEELFEKINDNCNEEMSYSVEVSYMEIYCERVRDLLNPKNKGNLRVREHPLLGPYVEDLSKLAVTSYTDIADLMDAGNKARTVAATNMNETSSRSHAVFTIVFTQKKHDNETNLSTEKVSKISLVDLAGSERADSTGAKGTRLKEGANINKSLTTLGKVISALAEVSKKKKKTDFIPYRDSVLTWLLRENLGGNSRTAMVAALSPADINYDETLSTLRYADRAKQIKCNAVINEDPNAKLVRELKEEVTRLKDLLRAQGLGDIIDTSMGSLTSSPSSCSLSSQVGLTSVTSIQERIMSTPGGEEAIERLKESEKIIAELNETWEEKLRKTEAIRMEREALLAEMGVAIREDGGTLGVFSPKKTPHLVNLNEDPLMSECLLYYIKDGITRVGQADAERRQDIVLSGAHIKEEHCIFRSERSNSGEVIVTLEPCERSETYVNGKRVSQPVQLRSGNRIIMGKNHVFRFNHPEQARAEREKTPSAETPSEPVDWTFAQRELLEKQGIDMKQEMEKRLQEMEILYKKEKEEADLLLEQQRLDADSDSGDDSDKRSCEESWKLITSLREKLPPSKLQTIVKKCGLPSSGKKREPIKMYQIPQRRRLSKDSKWVTISDLKIQAVKEICYEVALNDFRHSRQEIEALAIVKMKELCAMYGKKDPNERDSWRAVARDVWDTVGVGDEKIEDVMATGKGSTDVDDLKVHIDKLEDILQEVKKQNNMKDEEIKVLRNKMLKMEKVLPLIGSQEQKSPGSHKAKEPVGAGVSSTSENNVSKGDNGELAKEERVSQLMNGDPAFRRGRLRWMRQEQIRFKNLQQQEITKQLRRQNVPHRFIPPENRKPRFPFKSNPKHRNSWSPGTHIIITEDEVIELRIPKDDEARKGNKEESQEKGGKGAFKDPQFPWGSQGMRSQDHIQVSKQHINNQQQPPQLRWRSNSLNNGQPKSTRCQASASAESLNSHSGHPTADVQTFQAKRHIHQHRQSYCNYNTGGQLEGNAATSYQKQTDKPSHCSQFVTPPRMRRQFSAPNLKAGRETTV

Variants of: B1
Settings: with dlg1_rat Dlg1, Q62696

Variant | effect of a mutation on the interaction
V1153A | decreasing interaction

Variants of: B1
Settings: with magi2_rat Magi2, O88382
Chain of magi2_rat Magi2, O88382 (O88382 whole entry): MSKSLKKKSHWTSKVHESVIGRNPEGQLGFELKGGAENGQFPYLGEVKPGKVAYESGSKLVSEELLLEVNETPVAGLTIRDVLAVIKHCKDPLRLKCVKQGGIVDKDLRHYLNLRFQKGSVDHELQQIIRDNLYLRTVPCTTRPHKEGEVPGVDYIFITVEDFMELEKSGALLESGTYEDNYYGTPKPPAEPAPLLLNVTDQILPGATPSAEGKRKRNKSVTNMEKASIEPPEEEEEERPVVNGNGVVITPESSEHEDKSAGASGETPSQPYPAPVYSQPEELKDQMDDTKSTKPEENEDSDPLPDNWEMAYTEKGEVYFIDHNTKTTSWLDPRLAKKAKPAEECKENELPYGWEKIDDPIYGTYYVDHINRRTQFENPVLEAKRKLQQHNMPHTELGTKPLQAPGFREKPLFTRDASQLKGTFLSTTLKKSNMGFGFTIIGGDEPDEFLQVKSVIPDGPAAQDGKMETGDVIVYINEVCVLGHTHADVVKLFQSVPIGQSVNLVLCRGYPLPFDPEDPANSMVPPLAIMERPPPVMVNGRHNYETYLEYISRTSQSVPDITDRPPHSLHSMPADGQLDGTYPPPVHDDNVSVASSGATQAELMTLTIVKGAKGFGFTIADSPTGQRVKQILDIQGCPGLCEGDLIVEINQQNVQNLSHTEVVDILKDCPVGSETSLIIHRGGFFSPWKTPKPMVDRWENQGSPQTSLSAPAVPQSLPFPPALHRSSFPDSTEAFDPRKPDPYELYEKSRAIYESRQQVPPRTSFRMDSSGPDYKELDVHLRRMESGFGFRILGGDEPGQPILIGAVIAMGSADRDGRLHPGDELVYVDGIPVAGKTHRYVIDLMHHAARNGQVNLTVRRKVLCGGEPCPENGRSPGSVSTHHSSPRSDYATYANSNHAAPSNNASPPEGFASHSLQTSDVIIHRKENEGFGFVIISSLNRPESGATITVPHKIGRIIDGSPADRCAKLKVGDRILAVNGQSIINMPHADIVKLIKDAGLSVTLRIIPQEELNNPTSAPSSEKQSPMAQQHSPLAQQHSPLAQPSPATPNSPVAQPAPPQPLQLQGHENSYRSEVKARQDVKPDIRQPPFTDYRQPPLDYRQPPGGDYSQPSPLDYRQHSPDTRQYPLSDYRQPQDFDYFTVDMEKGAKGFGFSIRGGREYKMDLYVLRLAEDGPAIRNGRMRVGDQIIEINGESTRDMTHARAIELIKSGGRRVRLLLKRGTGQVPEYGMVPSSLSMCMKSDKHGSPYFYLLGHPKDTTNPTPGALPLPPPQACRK

Variant | effect of a mutation on the interaction
V1153A | disrupting interaction

Variants of: B1
Settings: with dlg1_human DLG1, Q12959
Chain of dlg1_human DLG1, Q12959 (Q12959 whole entry, looked up): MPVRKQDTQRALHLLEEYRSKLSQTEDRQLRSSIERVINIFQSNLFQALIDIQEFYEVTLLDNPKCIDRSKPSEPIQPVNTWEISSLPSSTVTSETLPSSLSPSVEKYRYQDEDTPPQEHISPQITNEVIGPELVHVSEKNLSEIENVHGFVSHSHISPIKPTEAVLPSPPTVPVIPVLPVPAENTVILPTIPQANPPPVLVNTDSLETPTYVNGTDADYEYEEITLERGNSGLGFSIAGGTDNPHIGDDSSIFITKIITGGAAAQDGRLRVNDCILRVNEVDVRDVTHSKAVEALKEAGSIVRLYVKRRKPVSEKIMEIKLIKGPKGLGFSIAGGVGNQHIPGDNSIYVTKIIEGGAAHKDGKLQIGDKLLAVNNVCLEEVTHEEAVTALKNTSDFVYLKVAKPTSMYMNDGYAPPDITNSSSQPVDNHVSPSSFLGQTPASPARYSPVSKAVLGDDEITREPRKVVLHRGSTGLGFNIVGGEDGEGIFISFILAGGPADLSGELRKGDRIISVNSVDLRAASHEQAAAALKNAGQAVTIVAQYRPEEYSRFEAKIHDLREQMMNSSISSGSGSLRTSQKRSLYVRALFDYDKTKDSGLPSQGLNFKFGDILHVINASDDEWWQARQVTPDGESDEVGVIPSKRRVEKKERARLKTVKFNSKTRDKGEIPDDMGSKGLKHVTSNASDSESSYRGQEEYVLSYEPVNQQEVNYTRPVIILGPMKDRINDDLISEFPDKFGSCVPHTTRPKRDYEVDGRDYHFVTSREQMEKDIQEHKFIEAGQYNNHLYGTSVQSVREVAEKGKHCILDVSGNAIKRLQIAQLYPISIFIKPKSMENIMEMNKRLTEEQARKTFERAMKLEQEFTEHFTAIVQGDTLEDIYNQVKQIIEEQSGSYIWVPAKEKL

Variant | effect of a mutation on the interaction
V1153A | decreasing interaction

Variants of: B1
Settings: with dlg2_rat Dlg2, Q63622
Chain of dlg2_rat Dlg2, Q63622 (Q63622 whole entry, looked up): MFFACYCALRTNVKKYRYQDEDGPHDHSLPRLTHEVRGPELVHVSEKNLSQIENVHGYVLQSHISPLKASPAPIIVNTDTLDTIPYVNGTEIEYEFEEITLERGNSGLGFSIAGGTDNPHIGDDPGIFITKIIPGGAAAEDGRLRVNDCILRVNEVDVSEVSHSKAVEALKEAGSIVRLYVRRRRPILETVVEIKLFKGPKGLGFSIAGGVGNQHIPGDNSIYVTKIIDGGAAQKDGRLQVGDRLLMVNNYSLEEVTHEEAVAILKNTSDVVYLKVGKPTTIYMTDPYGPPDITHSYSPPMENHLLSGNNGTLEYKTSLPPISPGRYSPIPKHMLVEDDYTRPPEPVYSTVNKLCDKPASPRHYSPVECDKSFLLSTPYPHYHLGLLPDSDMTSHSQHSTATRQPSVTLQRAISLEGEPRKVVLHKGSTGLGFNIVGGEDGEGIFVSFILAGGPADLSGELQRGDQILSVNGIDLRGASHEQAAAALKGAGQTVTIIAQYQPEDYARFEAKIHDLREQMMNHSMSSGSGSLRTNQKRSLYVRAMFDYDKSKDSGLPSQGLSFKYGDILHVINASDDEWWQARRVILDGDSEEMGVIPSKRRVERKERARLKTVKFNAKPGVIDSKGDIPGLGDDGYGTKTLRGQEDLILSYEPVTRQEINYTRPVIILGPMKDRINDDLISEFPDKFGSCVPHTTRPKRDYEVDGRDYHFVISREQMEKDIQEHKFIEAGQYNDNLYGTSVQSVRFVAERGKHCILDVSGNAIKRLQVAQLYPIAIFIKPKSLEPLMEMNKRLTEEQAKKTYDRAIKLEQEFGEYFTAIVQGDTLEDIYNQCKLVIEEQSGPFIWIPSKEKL

Variant | effect of a mutation on the interaction
V1153A | disrupting interaction

Variants of: B1
Settings: with magi1_human MAGI1, Q96QZ7
Chain of magi1_human MAGI1, Q96QZ7 (Q96QZ7 whole entry): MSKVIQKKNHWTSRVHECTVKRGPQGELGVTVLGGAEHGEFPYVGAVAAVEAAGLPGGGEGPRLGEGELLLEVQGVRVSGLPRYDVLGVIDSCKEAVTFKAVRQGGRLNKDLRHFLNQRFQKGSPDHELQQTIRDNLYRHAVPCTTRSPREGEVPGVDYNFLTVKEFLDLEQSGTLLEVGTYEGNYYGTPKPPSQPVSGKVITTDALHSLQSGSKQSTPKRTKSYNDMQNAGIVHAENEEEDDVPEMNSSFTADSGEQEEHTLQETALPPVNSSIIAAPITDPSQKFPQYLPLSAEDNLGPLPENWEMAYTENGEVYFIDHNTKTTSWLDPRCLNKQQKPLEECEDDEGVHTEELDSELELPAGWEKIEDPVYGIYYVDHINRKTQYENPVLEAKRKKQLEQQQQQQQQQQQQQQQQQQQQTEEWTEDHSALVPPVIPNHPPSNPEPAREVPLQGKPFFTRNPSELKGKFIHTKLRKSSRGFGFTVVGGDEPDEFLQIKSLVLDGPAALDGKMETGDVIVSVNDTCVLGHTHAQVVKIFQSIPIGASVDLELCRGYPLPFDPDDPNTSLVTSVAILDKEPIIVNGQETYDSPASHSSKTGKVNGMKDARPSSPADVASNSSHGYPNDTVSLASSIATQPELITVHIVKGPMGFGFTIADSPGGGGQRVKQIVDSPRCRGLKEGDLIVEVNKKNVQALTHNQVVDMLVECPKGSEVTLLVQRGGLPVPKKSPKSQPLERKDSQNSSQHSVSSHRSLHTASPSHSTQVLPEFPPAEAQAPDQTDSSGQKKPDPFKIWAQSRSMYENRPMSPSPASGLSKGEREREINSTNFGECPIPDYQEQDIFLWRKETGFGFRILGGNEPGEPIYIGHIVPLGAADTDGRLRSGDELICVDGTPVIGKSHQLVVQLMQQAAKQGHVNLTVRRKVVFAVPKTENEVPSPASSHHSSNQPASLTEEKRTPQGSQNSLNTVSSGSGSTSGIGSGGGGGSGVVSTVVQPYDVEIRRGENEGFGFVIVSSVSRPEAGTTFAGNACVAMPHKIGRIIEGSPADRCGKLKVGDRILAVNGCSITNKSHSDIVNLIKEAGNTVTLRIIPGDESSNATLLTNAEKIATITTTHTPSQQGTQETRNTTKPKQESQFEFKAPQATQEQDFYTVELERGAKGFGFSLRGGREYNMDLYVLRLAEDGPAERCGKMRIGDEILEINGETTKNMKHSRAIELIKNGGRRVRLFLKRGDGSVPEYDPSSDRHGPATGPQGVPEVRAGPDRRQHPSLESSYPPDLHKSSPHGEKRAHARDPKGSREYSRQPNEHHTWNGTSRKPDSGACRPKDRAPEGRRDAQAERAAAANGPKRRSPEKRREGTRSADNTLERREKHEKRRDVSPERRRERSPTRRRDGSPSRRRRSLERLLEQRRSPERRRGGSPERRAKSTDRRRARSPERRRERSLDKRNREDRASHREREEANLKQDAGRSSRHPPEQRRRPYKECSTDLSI

Variant | effect of a mutation on the interaction
V1153A | disrupting interaction
